Earlier results, collected in paper PMC7752828.

Key:
[1] = target: Fibrin E-domain E-domain (Homo sapiens) (UniProt P02671)
[2] = target: Fibrin(ogen) gamma' chain γ'-domain (Homo sapiens) (UniProt P02679)

Kd [1]: 2800 nM | Kd [2]: 100 nM
Substance: Thrombin (from UniProt P00734)
